Results: the RNAGym collection of RNA variant scans (doi:10.1073/pnas.2313332121)

B1: TPR t1 (parent)
chain: GACCAAUCUGCCCUCAGAGCUCGAGAACAUCUUCGGAUGCAGAGGAGGCAGGCUUCGGUGGCGCGAUAGCGCCAACGUCCUCAACCUCCAAUGCAUCCCACCACAUGAUGAUGCCUGAAGAGCCUUGGUUUUUUG

Variants of: B1
Experiment: polymerase ribozyme fitness, log enrichment relative to wild type (log ratio); higher = more active; in vitro selection for triplet polymerase activity
Procedure, shortened: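 Frozen incubation at −7 °C formed the core of a single, triplicate in vitro selection round applied to PCR-built, transcribed mutant libraries of each subunit of a heterodimeric triplet polymerase ribozyme. Extended constructs were gel-excised, captured with streptavidin beads and amplified by RT-PCR, and input and output libraries were Illumina-sequenced with a filter of ≥10 input reads and ≥1 read per output. Fitness is the logarithm of genotype enrichment relative to wild-type enrichment, with inverse-variance-weighted replicate averaging, and the logarithm is base 2.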

Row | Variant | polymerase ribozyme fitness (log ratio)
1 | G19A G61A U132C | -2.94
2 | C13U G44U G58A U59A G61A C62U | -2.38
3 | A24U C49G C64A C104U C123G | -6.64
4 | G69U A105U | -0.0845
5 | U21G C72A | -0.561
6 | G39A C56G C94G A111C C114U U130G | -4.67
7 | C31G A41U U55G G61U C86U G93C C102U G113C | -6.73
8 | C11G C13A C88G | -2.71
9 | C11U C53U C94G C123G | -1.5
10 | U32C U112A | 1.49
11 | U78C C102G | -5.35
12 | U14A C40U C64U A91U | -4.67
13 | A2G A18C C115A C123U | -1.44
14 | A16C A37C U112C | -2.37
15 | A16U C49A G51U U55G U126G G128U | -5.16
16 | C13G A74G C79U | -1.86
17 | U59A C85U G113A | -2.11
18 | U9G A37U C40U G45A C72U C104U | -0.789
19 | C13G C85G C86A | -3.16
20 | C34G A43U G60C C82A A100U C114U U130C U132A U134C | -5.7
21 | C12A C20A G63C G113U C115U U131A | -3.61
22 | A6U C15A C56A A75G A105C | -4.99
23 | U126C | -0.485
24 | C72U G93U | -1.56

Row | Variant | polymerase ribozyme fitness (log ratio)
25 | C28U G63C U78C U92G C99G A103U G110A | -4.52
26 | C20G C56U C123A | -5.13
27 | C40U A50G | -0.548
28 | A24U G35C C49A G63A A111G C124U G135A | -6.36
29 | G48A C80A | -2.53
30 | U9A C13U G19U U78A A91G | -3.32
31 | G77C C89G G122U C123U | -1.58
32 | G39A G60A C86U U116A | -3.99
33 | C104U G117U U132A | -1.97
34 | A37C G52U C80A | -4.05
35 | C11G U59A | 0.0952
36 | U33G C70U U78G | -6.53
37 | A2U C13A | -3.76
38 | C3U C13U C34U C62U C85U | -5.63
39 | C88A C94U | -0.581
40 | G39U C85U | -0.997
41 | A84C C98A C114G U116C | -4.74
42 | G36A G61U C72G G77A C82A C98U | -6
43 | C70G A75C C115A | -1.54
44 | A26G A84G G120A | -2.95
45 | G48U C56G C101U C114G | -4.75
46 | C56U G69U G120U | -1.89
47 | C12A G71U | -0.821
48 | G47A C72G | -0.62

Row | Variant | polymerase ribozyme fitness (log ratio)
49 | A100C A121G | 1.39
50 | C28U C62U | -2.6
51 | G52A C70U G120A U132A | 0.354
52 | G10A G93A | 0.205
53 | U9G C62G C82A | -0.591
54 | U7C C22A C82A C89U | -4.93
55 | A50G G51U C89A C124U | -4.23
56 | G42A C70A C102U C114G U125A | -6.46
57 | G39U C62A | -2.16
58 | U55G U116G | -2.12
59 | C4A C72U | -1.93
60 | C4A G23A A50G G61C U87C A95G G117U C123G | -6.54
61 | C13U G61C A100U A111G G113A | -5.12
62 | C11G C13A G117C U132A U134G | -2.05
63 | C13A A26G C53G A84U A90G | -4.94
64 | A2C C11U C70G G120A | -3.19
65 | G48A C49U G61U U78A G122A U126A | -3.77
66 | G17A C62A U87C | -6.24
67 | C4A A50G C70U A74G A84C C115A | -5.12
68 | U9G G63C | -0.0322
69 | C73U C79G G113U | -5.88
70 | C13U C53A C72A A103U G127U | -5.25
71 | A5C G69A U129A | -4.05
72 | A18G A24G U55A | -5.14

Row | Variant | polymerase ribozyme fitness (log ratio)
73 | G71C G93A | -1.77
74 | G39A C72G A105G | -2.86
75 | C72A G110U | -1.54
76 | C22U G117A | -4.58
77 | A6G C13G G51A C79G C88A G93C A108U C115U C124U | -7.39
78 | C34G A83C | -4.9
79 | C40U G51U | -3.7
80 | A41G G42U A75G A90U G128C U129A | -4.64
81 | G51A G57C U59C U96G U106A A118G | -5.28
82 | C98A G120U | -4.6
83 | C53U G120A U130A | 0.491
84 | G60C U109G | -5.41
85 | C15U G60A C73U U78A G135U | -1.76
86 | G48U G57U C85A C114G U129A | -6.62
87 | G36A G42C A84U U106A G110C C123U G128A | -7.57
88 | C72G C98U A105C | -4.92
89 | G61U U131C | 0.233
90 | G10U A103G | -6.29
91 | C20A C49G | -2.27
92 | C11G A41C U87A G122A | -0.672
93 | A6U A46C C85G G113A G135C | -3.74
94 | C11U C56A U116C | -2.85
95 | A2C U38G C79G A121C | -2.95
96 | A90C C104U | -0.65

Row | Variant | polymerase ribozyme fitness (log ratio)
97 | C11U U59C G93A | -1.49
98 | G63A C79U | -1.07
99 | C13U C82U | -0.268
100 | G35A G122U C123G | -4
101 | A26C | -6.07
102 | C70A A121C | 0.356
103 | C4A G45A C72A C123A | -0.972
104 | C8A G35C G71A | -5.94
105 | C3U C8A C11A U21A C124G | 1.81
106 | A74G C94U | 0.88
107 | A18G C64U G113A | -1.65
108 | C34U C72U A105G G120A | -6.01
109 | A5U A91C U96G A121G | -0.932
110 | G71C U130A | -1.3
111 | C12G C53U G93C | -0.482
112 | G45A A50U U130C | -0.0855
113 | C15U C70G U78A C86G G127A | -5.32
114 | C11G G42C | -1.1
115 | G77U C79U U106A | -0.0765
116 | C4A G45C G120A G127C | -1.29
117 | C20U A41C C72A C101G | -3.66
118 | U7G A41C C56U | -0.335
119 | C28U G52C C56G | -3.11
120 | A41U G51U C62U | -5.82

Row | Variant | polymerase ribozyme fitness (log ratio)
121 | A37C G65C A121U | -5.06
122 | C12A C79A A111G | -2.24
123 | C11U G128A | -2.45
124 | C49A C94U U116A | -3.07
125 | A50C C70A | -2.58
126 | C64A C80G A103C U109G A118U | -5.65
127 | A41C G69U U112C | 0.865
128 | C72G U92A U126G U129A | -6.86
129 | A43C U125A | -2
130 | G45U C124A | 0.716
131 | U125A U133A | -0.956
132 | A6G C88U G113U | -2.37
133 | A29C G52C C114U | -4.25
134 | C64U G110U | -0.774
135 | A2G G35C | -3.63
136 | C70U C99U | -3.35
137 | C13G C49U G51A U125A | -4.36
138 | U78C G113A G135U | -2.01
139 | C40A A111C | -1.49
140 | A84U A90G C98G U109A A121U | -3.5
141 | C22G C64U C115U A121U | -2.57
142 | C11U C70A | -0.922
143 | C4U U38G | -1.16
144 | C20A C22A C62G U81G U96G A121U | -5.74

Row | Variant | polymerase ribozyme fitness (log ratio)
145 | G48U C88G G113C A121C | -3.7
146 | G71U C101A | -1.24
147 | A43C G77A G127C | -3.5
148 | C11G A121G | 1.78
149 | A43U A121U | 1.26
150 | C76A C89U U129A | -2.51
151 | A16U A18C C86A | -4.71
152 | C12G C104U G128C U133A | -0.738
153 | U7G G63U C88U G93C | -2.75
154 | G17U U130A | -3.3
155 | C8G U14C C79U U87A U112A | 2.12
156 | C4U G57A G61A | -0.861
157 | C76G G77U U78G U112C | 2.21
158 | C56A G61A G110U | -4.01
159 | C11U C102U | -2.09
160 | A37U C101A G120A | -0.798
161 | A6U U9C G47A G69A | -2.93
162 | C49G A90C | -3.22
163 | A18U C124A U126A | -1.36
164 | G44A G69A C89A C124G | -3.8
165 | C101G C102G G110C | -4.36
166 | A6G G51A | -2.27
167 | U9C G19A U32A C88U C123A | -5.37
